Laboratory results from patent US20040229298A1.
Ends that are not written are not given here.

Legend:
Assay in all cases: G assay ELISA, E6 PL peptide titrated on constant GST-PDZ
[1] = biological target: GST-SAST1 PDZ domain (human), Q9Y2H9
[2] = biological target: GST-PSD95 PDZ domains 1-3 (human), P78352
[3] = biological target: GST-SIP1 PDZ domain 1 (human)
[4] = biological target: GST-DLG2 PDZ domain 3 (human)
[5] = biological target: GST-PSD95 PDZ domain 2 (human)
[6] = biological target: GST-SAST2 PDZ domain 1 (human)
[7] = biological target: GST-TIP1 PDZ domain (human)
[8] = biological target: GST-MAGI1 PDZ domain 2 (human)
[9] = biological target: GST-DLG3 PDZ domains 1-2 (human), Q92796
Chain of GST-DLG3 PDZ domains 1-2 (human), Q92796 (Q92796 other isoform, or with tags, fused parts or gaps limits assumed): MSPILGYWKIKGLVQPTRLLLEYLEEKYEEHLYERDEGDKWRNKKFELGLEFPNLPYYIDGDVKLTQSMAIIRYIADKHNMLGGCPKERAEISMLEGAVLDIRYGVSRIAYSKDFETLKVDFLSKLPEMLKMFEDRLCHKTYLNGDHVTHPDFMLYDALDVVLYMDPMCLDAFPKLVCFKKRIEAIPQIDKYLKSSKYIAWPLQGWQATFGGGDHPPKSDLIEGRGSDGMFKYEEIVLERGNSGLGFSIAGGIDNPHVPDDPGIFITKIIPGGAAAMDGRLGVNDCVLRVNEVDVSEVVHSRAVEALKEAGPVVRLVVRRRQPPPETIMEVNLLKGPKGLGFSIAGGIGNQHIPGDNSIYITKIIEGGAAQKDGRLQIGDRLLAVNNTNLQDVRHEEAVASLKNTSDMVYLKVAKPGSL

Chain of GST-SAST1 PDZ domain (human), Q9Y2H9 (Q9Y2H9 other isoform, or with tags, fused parts or gaps limits assumed): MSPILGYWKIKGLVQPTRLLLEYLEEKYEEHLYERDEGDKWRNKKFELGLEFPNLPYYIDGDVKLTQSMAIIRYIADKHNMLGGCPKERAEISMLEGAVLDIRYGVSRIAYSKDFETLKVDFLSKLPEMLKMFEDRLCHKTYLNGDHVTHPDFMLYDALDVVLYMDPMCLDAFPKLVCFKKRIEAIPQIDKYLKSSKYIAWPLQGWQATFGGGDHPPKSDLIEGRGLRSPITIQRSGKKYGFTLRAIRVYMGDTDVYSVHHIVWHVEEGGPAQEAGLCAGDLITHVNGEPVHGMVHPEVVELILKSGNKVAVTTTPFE

**Q.** What does the source list for WTGRCMSCCRSSRTRRETQL (not fully specified; cysteine pairing not given here) [HPV16 E6 C-terminal PDZ ligand peptide (20 mer, biotinylated), P03126 139-158]?
**A.** EC50 [1]: 580 nM; EC50 [2]: 1000 nM; EC50 [3]: 7500 nM; EC50 [4]: 1600 nM; EC50 [5]: 6800 nM; EC50 [6]: 1200 nM; EC50 [7]: 750 nM; EC50 [8]: 56 nM; EC50 [9]: 3800 nM
